# Measured values reported in patent publication US20210062216.
# T1: Myc:SlRin4-3 (pGWB518, N-terminal Myc tag)
# T1 chain: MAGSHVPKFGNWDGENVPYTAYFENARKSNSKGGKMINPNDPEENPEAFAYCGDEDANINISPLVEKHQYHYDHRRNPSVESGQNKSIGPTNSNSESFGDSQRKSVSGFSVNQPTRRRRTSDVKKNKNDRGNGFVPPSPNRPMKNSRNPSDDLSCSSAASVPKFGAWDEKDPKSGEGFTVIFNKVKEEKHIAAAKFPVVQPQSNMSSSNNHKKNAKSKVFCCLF
# B1: AvrRpt2:Myc (avrRpt2 of Pseudomonas syringae pv. tomato NY15125 in pGWB417, C-terminal Myc tag) (protein)
# chain: MKIAPVAINHSPLSREVPSHAAPTQAKQTNLQSEAGDLDARKSSASSPETRALLATKTVLGRHKIEVPAFGGWFKKKSSKHETGGSSANADSSSVASDSTEKPLFRLTHVPYVSQGNERMGCWYACARMVGHSVEAGPRLGLPELYEGREGPAGLQDFSDVERFIHNEGLTRVDLPDNERFTHEELGALLYKHGPIIFGWKTPNDSWHMSVLTGVDKETSSITFHDPRQGPDLAMPLDYFNQRLAWQVPHAMLYR
# Biological target: T1, Myc:SlRin4-3 (pGWB518, N-terminal Myc …)
protein,measurement,value
B1,"abundance of Rin4 protein, c-Myc immunoblot of N. benthamiana leaves 28 hr after agroinfiltration",a decrease in the abundance of Rin4 protein
